{
  "source": "paper PMC5128727",
  "about": "“Metalloprotease SPRTN/DVC1 Orchestrates Replication-Coupled DNA-Protein Crosslink Repair”",
  "biological_target": "T1, SPRTN WT (human, UniProt Q9H040 1-489)",
  "T1 sequence": "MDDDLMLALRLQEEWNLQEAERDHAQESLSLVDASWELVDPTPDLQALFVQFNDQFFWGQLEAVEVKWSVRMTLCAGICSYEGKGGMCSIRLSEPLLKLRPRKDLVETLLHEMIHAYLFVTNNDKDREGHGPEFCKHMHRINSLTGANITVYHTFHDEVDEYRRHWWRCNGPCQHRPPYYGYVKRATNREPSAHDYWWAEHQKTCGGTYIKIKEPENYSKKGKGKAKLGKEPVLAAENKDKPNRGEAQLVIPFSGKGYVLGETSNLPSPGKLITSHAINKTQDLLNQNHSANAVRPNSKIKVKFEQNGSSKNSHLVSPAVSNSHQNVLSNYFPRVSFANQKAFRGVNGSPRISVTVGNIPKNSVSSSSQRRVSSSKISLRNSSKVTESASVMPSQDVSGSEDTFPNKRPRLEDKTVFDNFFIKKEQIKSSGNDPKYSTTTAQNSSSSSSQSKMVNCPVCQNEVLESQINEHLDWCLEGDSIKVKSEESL",
  "assay": "fluorescence polarization; affinity similar to dsDNA; Probe annealing buffer: 10 mM HEPES pH 7.5, 50 mM NaCl; FP assay buffer and temperature not in the material",
  "details": "protein: recombinant; tags: His-ZB tag cleaved by TEV; label: FITC (position not in material); single strand",
  "data": [
    {"binder": "ssDNA (OD1) (ssDNA) DNA: ATCGATAGTCGGATCCTCTAGACAGCTCCATGTAGCAAGGCACTGGTAGAATTCGGCAGCGTC", "values": [
      {"measurement": "binding result", "value": "binds"}
    ]}
  ]
}
